Measurements: US20050070692A1 (published 2005)

Key:
human IL-1β [1] = target: T1, human IL-1β (human, UniProt P01584 117-269); experiment: cell-based or functional assay
human IL-1β [2] = target: T1, human IL-1β; experiment: competition ELISA on coated human IL-1β against biotinylated Mu007, average of three experiments
Procedure: (§1) Wells of 96-well ELISA plates (Nunc-lmmuno plate, Cat # 439454, NalgeNunc) were coated with 100 μL of 0.5. μg/mL of human IL-1β in 0.2M sodium carbonate-bicarbonate buffer (pH 9.4) overnight at 4° C., washed with Wash Buffer, blocked with Superblock blocking buffer for 30 min at 37° C., and washed again with Wash Buffer. A mixture of biotinylated Mu007 (0.16 μg/mL final concentration) and competitor antibody (Mu007, Hu007, or Hu007 analogs starting at 100 μg/mL final concentration and serial 3-fold dilutions) in ELISA Buffer were added in triplicate in a final volume of 100 μL per well. As a no-competitor control, 100 μL of 0.16 μg/mL biotinylated Mu007 was used. As a background control, 100 gLL of ELISA Buffer was used. ELISA plates were incubated at 37° C. for 2 hr. After washing the wells with Washing Buffer, 100 μL of 1 μg/mL HRP-conjugated streptavidin (Jackson ImmunoResearch) was added to each well. ELISA plates were incubated at room temperature for 30 min and washed with Washing Buffer. For color development, 100 μL/well of ABTS substrate was added. Color development was stopped by adding 100 μL/well of 2% oxalic acid. Absorbance was read at 415 nm.
Mu007, Hu007 and Hu007 analogs competed with biotinylated Mu007 in a concentration-dependent manner. […]

human IL-1β [3] = target: T1, human IL-1β; experiment: competition ELISA on coated human IL-1β against biotinylated Mu007, Exp. C
Procedure: as §1
(§2) Mu007, Hu007 and Hu007 analogs competed with biotinylated Mu007 in a concentration-dependent manner. The IC₅₀ values of Mu007 and Hu007 in three independent ELISA competition experiments, obtained using the computer software Prism (GraphPad Software Inc., San Diego, Calif.) are shown in Table 1. The relative binding of Hu007 was on average 89% of Mu007.

cynomolgus monkey IL-1β = target: T2, cynomolgus monkey IL-1β (cynomolgus monkey, UniProt P79182 117-268); experiment: BIAcore, antibody captured on anti-IgG CM5 chip, IL-1β flowed
T2 construct: also called Cynomolgus IL-1β
T2 sequence (looked up): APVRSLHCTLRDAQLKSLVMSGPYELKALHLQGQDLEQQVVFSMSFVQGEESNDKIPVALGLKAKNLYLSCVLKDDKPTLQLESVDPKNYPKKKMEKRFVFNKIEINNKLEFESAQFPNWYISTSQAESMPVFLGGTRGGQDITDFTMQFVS
Procedure: (§3) Affinities and specificities of both Hu007 and Mu007 were determined using BlAcore measurements. BIAcore™ is an automated biosensor system that measures molecular interactions. (Karlsson, et al. (1991) J. Immunol. Methods 145: 229-240). In these experiments antibody was immobilized at low density on a BIAcore™ chip. Ethyl-dimethylaminopropyl-carbodiimide (EDC) was used to couple reactive amino groups to purified goat anti-human IgG or goat anti-rabbit IgG to a flow cell of a carboxy-methyl (CM5) BIAcore™ sensor chip. Goat IgG was diluted in sodium acetate buffer, pH 4.0, and immobilized on a flow cell of a CM5 chip using EDC to yield 1000 response units. Unreacted sites were blocked with ehanolamine. A flow rate of 60 μL/min was used. Multiple binding/elution cycles were performed by injection a 100 μL solution of 15 μg/mL Mu007 or Hu007 followed by human IL-1β, mouse IL-1β, rat IL-1β, cynomolgus monkey IL-1β, porcine IL-1β, human IL-1 receptor antagonist, and human IL-1α at decreasing concentrations for each cycle (e.g., 1500, 750, 375, 188, 94, 47, 23.5, 12, and 0 picomolar). Elution was performed with glycine-HCl, pH 1.5. BIAevaluation™ was used to analyze the kinetic data. Table 2 depicts the affinities of Hu007 and Mu007 for human and cynomolgus IL-1β. […] Cynomolgus and porcine IL-1β had 100% binding to Hu007 relative to human IL-1β.

human IL-1β [4] = target: T1, human IL-1β; experiment: as above
Procedure: as §3

human IL-1β [5] = target: T1, human IL-1β; experiment: competition ELISA on coated human IL-1β against biotinylated Mu007, Exp. B
Procedure: as §1, §2

human IL-1β [6] = target: T1, human IL-1β; experiment: cell-based or functional assay; remark: listed apart in the source
human IL-1β [7] = target: T1, human IL-1β; experiment: competition ELISA on coated human IL-1β against biotinylated Mu007, Exp. A
Procedure: as §1, §2

IC50, inhibition of human IL-1β stimulated proliferation (human IL-1β [1]): 57 Picomolar
IC50 (human IL-1β [2]): 0.35 µg/mL
Hu007/Mu007 × 100 (IC50 ratio, relative binding against Mu007) (human IL-1β [3]): 82%
IC50 (human IL-1β [3]): 0.32 µg/mL
Kd (cynomolgus monkey IL-1β): 0.0104 nM
binding relative to human IL-1β (cynomolgus monkey IL-1β): 100%
Kd (human IL-1β [4]): 0.0102 nM
Hu007/Mu007 × 100 (IC50 ratio, relative binding against Mu007) (human IL-1β [5]): 88%
IC50 (human IL-1β [5]): 0.35 µg/mL
IC50, inhibition of IL-1β stimulated proliferation of T1165.17 cells (3H-thymidine), average of three experiments (human IL-1β [6]): 480 pM
efficacy relative to Mu007 in the murine model of human IL-1β induced IL-6 (human IL-1β [6]): ~0.33 fraction of Mu007
Hu007/Mu007 × 100 (IC50 ratio, relative binding against Mu007) (human IL-1β [7]): 98%
IC50 (human IL-1β [7]): 0.39 µg/mL
B1: humanized antibody Hu007 (antibody, human IgG1, kappa, V domains shown)
VH: QVQLVQSGAEVKKPGASVKVSCKVSGYTFSRYWIEWVRQAPGKGLEWIGEILPGNGNINYNEKFKGKATITADTSTDTAYMELSSLRSEDTAVYYCSTIYYDYDQGFTYWGQGTLVTVSS
VL: DIQMTQSPSSLSASVGDRVTITCKASQDIDRYLSWFQQKPGKAPKSLIYRVKRLVDGVPSRFSGSASGTDYTLTISSLQPEDFATYYCLQYDEFPYTFGQGTKLEIKR
notes: Human IgG1 kappa; also called WT; Hu007 WT
